Values quoted from earlier work, collected in publication PMC7364852.

Biological target: Spike RBD (SARS-CoV-2) (UniProt P0DTC2)

Substance: SBP1 (from UniProt Q9BYF1)
- Kd: 47 nM
